Data on two molecules can be found in paper doi:10.1101/2022.02.05.479199.

The target of assay [1] is RPA-DBD-D^MB543 (S. cerevisiae) (UniProt P22336). Nature of the assay: C-trap optical tweezers with confocal fluorescence.
The target of assay [2] is RPA-DBD-D^Cy3 (S. cerevisiae) (UniProt P22336). Briefly: FRET or BRET. Background: BRET reads energy transfer from a luciferase to a nearby fluorophore.
The target of assay [3] is RPA-DBD-A^Cy3 (S. cerevisiae) (UniProt P22336). Nature of the assay: FRET or BRET.
The target in assay [4] is RPA-DBD-A^MB543 (S. cerevisiae) (UniProt P22336). Briefly: other fluorescence titration.
In assay [5] the target is F-A-B-DBD-A^MB543 (S. cerevisiae). Briefly: other fluorescence titration.

B1: Rtt105^Cy5 (natural protein)
chain: MYSNHNLNSDDCSFDWNEEKAAELQRTGVSFDRSLTPQSLRTSTRRLSEENKQQSGTMHIDTSPSVVSDIISSRRDRSQDFFGPHSSSPIAPSERQRADQRSRLESMRLTRRRDKMTKVRGGLEKMEEMIMQGEHLREMQRLKQEAQKNALPSDMAEYMEWQNNEDLEDDELLAFIEKQETYKNELEHFLNNANKNVYENNSYPNSHT
modifications: Cy5 (maleimide) on Cys-12
B1 showed a t1/2 of dissociation in assay [1] of 5 s. In assay [2], this molecule gave a kobs,1 (two-step model) of 3.5 s⁻¹ and a kobs,2 (two-step model) of 0.2 s⁻¹. In assay [3], this molecule yielded a kobs (single exponential model) of 0.62 s⁻¹ and a kobs (single-step model) of 0.2 s⁻¹.

B2: Regulator of Ty1 Transposition 105 (Rtt105) (natural protein)
chain: MYSNHNLNSDDCCFDWNEEKAAELQRTGVSFDRSLTPQSLRTSTRRLSEENKQQSGTMHIDTSPSVVSDIISSRRDRSQDFFGPHSSSPIAPSERQRADQRSRLESMRLTRRRDKMTKVRGGLEKMEEMIMQGEHLREMQRLKQEAQKNALPSDMAEYMEWQNNEDLEDDELLAFIEKQETYKNELEHFLNNANKNVYENNSYPNSHT
For B2, the values for the Kd in assay [4] and in assay [5] were 61.1 nM and 33.9 nM, respectively.
